Assay results as given in the supplement of paper PMC10724198.
± gives the standard deviation of the averaged measurements.

Test system: Saccharomyces cerevisiae
Assay: protein stability index of tFT-peptide fusion (C-terminal peptide) (PSI (0-1 scale)); higher = more stable (slower turnover)
Details: genetic background: wild type; temperature: 30 C
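Further: PSI is a weighted mean of sequencing reads over stability bins, variants kept only with over 10 reads, mCherry proximal and sfGFP distal, peptide attached via GGGS linker.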

Row | Sequence | protein stability index
1 | PQFRHFWALSTT | 0.707 ± 0.015
2 | PQPLFLPSPLSR | 0.702 ± 0.06
3 | PQPLYAPFPPPL | 0.789 ± 0.096
4 | PQPPPPPPLSVS | 0.673 ± 0.0087
5 | PQPPRPARLCFP | 0.705 ± 0.028
6 | PQRTPPRPNKPP | 0.556 ± 0.013
7 | PQSCNILRGLES | 0.708 ± 0.056
8 | PRACPSSPASSL | 0.722 ± 0.024
9 | PRALPSPPPPPP | 0.661 ± 0.13
10 | PRAPHATGYNRR | 0.7016 ± 0.0069
11 | PRAPPLPPSPSP | 0.668 ± 0.011
12 | PRARHSVPNIQS | 0.694 ± 0.042
13 | PRGAVGSRPAGR | 0.677 ± 0.034
14 | PRGTFARSRSTG | 0.7156 ± 0.0027
15 | PRGYRGNCAYDV | 0.636 ± 0.083
16 | PRHPPTHLIPKT | 0.615 ± 0.034
17 | PRLAPLTLLPPS | 0.7051 ± 0.0027
18 | PRLPPPPHPSRP | 0.698 ± 0.031
19 | PRNTPPRRAPTR | 0.6485 ± 0.0031
20 | PRPAPGGSPALT | 0.689 ± 0.083
21 | PRPAPLPAPPPS | 0.679 ± 0.029
22 | PRPISLFPLPPP | 0.693 ± 0.057
23 | PRPLPPPPAFLP | 0.766 ± 0.08
24 | PRPPAPRTGPPP | 0.633 ± 0.011
25 | PRPPHPPPSSPR | 0.69 ± 0.096
26 | PRPPPPRIPRPD | 0.7 ± 0.12

Row | Sequence | protein stability index
27 | PRPPPPSVARVP | 0.64711 ± 0.0003
28 | PRPPRWSSPWPV | 0.719 ± 0.058
29 | PRPPYTPSPPHQ | 0.774 ± 0.016
30 | PRPRSPLSPLAL | 0.676 ± 0.031
31 | PRPRTQPHPGPG | 0.711 ± 0.0096
32 | PRQLPVRKVSTG | 0.7042 ± 0.0022
33 | PRRHLALLISEG | 0.6868 ± 0.00082
34 | PRRPAPSPLPTP | 0.718 ± 0.2
35 | PRRPATTSIPTT | 0.672 ± 0.038
36 | PRRPLPPSPPRE | 0.729 ± 0.022
37 | PRRRLVLDDRPT | 0.72823 ± 6.5e-05
38 | PRSPPHLRWTRY | 0.686 ± 0.013
39 | PRSPPLTHVSLH | 0.697 ± 0.043
40 | PRSPPPPSPPPY | 0.583 ± 0.02
41 | PRSPPSPTLPHP | 0.609 ± 0.027
42 | PSAASIFLPFPL | 0.733 ± 0.048
43 | PSAGPVVLPTPP | 0.704 ± 0.013
44 | PSCALAFRSEPH | 0.741 ± 0.018
45 | PSCDCFLLLAPR | 0.665 ± 0.055
46 | PSCPAFPSPPPS | 0.696 ± 0.014
47 | PSDTHTPDQPAK | 0.694 ± 0.056
48 | PSELLPQLPSRW | 0.702 ± 0.019
49 | PSETPSPLTLCS | 0.722 ± 0.037
50 | PSFSPPQVPFPV | 0.721 ± 0.06
51 | PSGFPLRSYLPP | 0.707 ± 0.049
52 | PSGPPPSLFPSA | 0.661 ± 0.052

Row | Sequence | protein stability index
53 | PSHGSRPSPPLR | 0.676 ± 0.034
54 | PSHPPPPATPCP | 0.7108 ± 0.0065
55 | PSKTTALTGPDP | 0.737 ± 0.008
56 | PSLLSSPPPPLL | 0.737 ± 0.073
57 | PSLNNTMLKENK | 0.62 ± 0.061
58 | PSLPPDLPPPPA | 0.744 ± 0.011
59 | PSLPPPRRPLSP | 0.671 ± 0.017
60 | PSLPPSPISPPH | 0.588 ± 0.013
61 | PSLPVPLVPPLS | 0.633 ± 0.014
62 | PSLPWSGPPVPC | 0.664 ± 0.013
63 | PSLQPPLHYPPP | 0.6448 ± 0.0044
64 | PSLRPPPLPPLS | 0.7214 ± 0.0025
65 | PSPAALLPPPPP | 0.643 ± 0.014
66 | PSPALPSLSTPL | 0.669 ± 0.047
67 | PSPAPPPLPFPR | 0.72 ± 0.038
68 | PSPAPTPPTPHS | 0.721 ± 0.28
69 | PSPCRPPHTSAG | 0.646 ± 0.048
70 | PSPFPCVFRFSA | 0.635 ± 0.029
71 | PSPHRFPAPTLP | 0.687 ± 0.039
72 | PSPLPPPVSRPP | 0.691 ± 0.049
73 | PSPLRASPTAVF | 0.62 ± 0.013
74 | PSPPAPFPVCLL | 0.617 ± 0.011
75 | PSPPFFLTAASL | 0.668 ± 0.01
76 | PSPPPAPPPHSP | 0.665 ± 0.022
77 | PSPPPLSSPPSP | 0.6425 ± 0.003
78 | PSPPPPPALPSH | 0.66 ± 0.13

Row | Sequence | protein stability index
79 | PSPPPPPPPQPS | 0.722 ± 0.059
80 | PSPPPPTVPHPP | 0.6779 ± 0.00096
81 | PSPPSRFPPCTP | 0.76987 ± 0.00013
82 | PSPPTLILPPHP | 0.663 ± 0.0095
83 | PSPPTPHPPCRS | 0.746 ± 0.013
84 | PSPPYLIPHALS | 0.676 ± 0.041
85 | PSPRPPPSPPLP | 0.695 ± 0.037
86 | PSPSAPPPLSPL | 0.546 ± 0.052
87 | PSPSFLVFATSY | 0.628 ± 0.027
88 | PSPSPPLAPPVT | 0.647 ± 0.038
89 | PSPSPPRLLPPP | 0.7 ± 0.031
90 | PSPSPSPPLPPP | 0.652 ± 0.0077
91 | PSPSRAPPMAPS | 0.6982 ± 0.0013
92 | PSPVLLPPFVSP | 0.706 ± 0.0089
93 | PSRIRPPTASPP | 0.76 ± 0.061
94 | PSRPLPPPPPPL | 0.765 ± 0.14
95 | PSRPPPARSSPP | 0.652 ± 0.0069
96 | PSRPPRLPPASF | 0.681 ± 0.046
97 | PSRSLSSPPSSR | 0.64 ± 0.019
98 | PSSCSPPPSSPS | 0.692 ± 0.064
99 | PSSPPLPPPSPP | 0.644 ± 0.03
100 | PSSPPSLSPPLP | 0.7177 ± 0.0034
101 | PSSPPVLPLHFH | 0.728 ± 0.019
